Here are results for 42 variants from the Human Domainome abundance scans (Beltran et al. 2025).

The chains are these.
B1: POU domain, class 3, transcription factor 3, residues 408 to 463; numbered along this chain, P20264 (parent)
chain: KKRTSIEVSVKGALESHFLKCPKPSAQEITNLADSLQLEKEVVRVWFCNRRQKEKR

± gives the uncertainty stated by the source.

The variants in the data set derive from B1. Kind of data set: abundance fitness (aPCA) (normalised: wild type 0, dead -1); higher = more abundant; growth selection in yeast, the domain comes from the species named. The settings on record: Homo sapiens.
KKRTSIEVSVKGALESHFLKCPKPSAQEITNLADSLTLEKEVVRVWFCNRRQKEKR [Q37T]: the abundance fitness was -0.257 ± 0.093.

Take KKRTSIEVSNKGALESHFLKCPKPSAQEITNLADSLQLEKEVVRVWFCNRRQKEKR [V10N]: the abundance fitness is -0.148 ± 0.18.

KKRTSIEVSVKGALESHFLKCPKPSAQEITNLADSCQLEKEVVRVWFCNRRQKEKR [L36C]: the abundance fitness was -0.517 ± 0.15.

In the case of KKRTSIEVSVKGALESHRLKCPKPSAQEITNLADSLQLEKEVVRVWFCNRRQKEKR [F18R], the abundance fitness was -0.935 ± 0.097.

With KKRTSIEVSVKGALESHCLKCPKPSAQEITNLADSLQLEKEVVRVWFCNRRQKEKR [F18C], the abundance fitness is -0.935 ± 0.16.

For KKRTSIEVSVKGALESHYLKCPKPSAQEITNLADSLQLEKEVVRVWFCNRRQKEKR [F18Y], the abundance fitness came to 0.026 ± 0.12.

With KKRTSIEVSVKGALESHWLKCPKPSAQEITNLADSLQLEKEVVRVWFCNRRQKEKR [F18W], the abundance fitness was -0.5 ± 0.096.

As for KKRTSIEVSVKGVLESHFLKCPKPSAQEITNLADSLQLEKEVVRVWFCNRRQKEKR [A13V], the abundance fitness was 0.111 ± 0.075.

Take KKRTSIEVSVKGALESHFLKCPKVSAQEITNLADSLQLEKEVVRVWFCNRRQKEKR [P24V]: the abundance fitness was -0.792 ± 0.093.

With KKRTSIEVSVKGALESHFLKCPKFSAQEITNLADSLQLEKEVVRVWFCNRRQKEKR [P24F], the abundance fitness was -0.827 ± 0.22.

Turning to KKRTSIEVSVKGALESHFLKCPKRSAQEITNLADSLQLEKEVVRVWFCNRRQKEKR [P24R], the abundance fitness was -0.918 ± 0.094.

Consider KKRTSIEVSVKGALESHFLKCPKPWAQEITNLADSLQLEKEVVRVWFCNRRQKEKR [S25W], for which the abundance fitness is -0.885 ± 0.11.

Turning to KKRTSIEVSVKGALESHFLKCPKPFAQEITNLADSLQLEKEVVRVWFCNRRQKEKR [S25F], the abundance fitness was -0.773 ± 0.25.

As for KKRTSIEWSVKGALESHFLKCPKPSAQEITNLADSLQLEKEVVRVWFCNRRQKEKR [V8W], the abundance fitness is -0.141 ± 0.1.

Regarding KKRTSIEGSVKGALESHFLKCPKPSAQEITNLADSLQLEKEVVRVWFCNRRQKEKR [V8G], the abundance fitness came out at 0.055 ± 0.063.

For the variant KKRTSIETSVKGALESHFLKCPKPSAQEITNLADSLQLEKEVVRVWFCNRRQKEKR [V8T], the abundance fitness was determined as 0.161 ± 0.1.

Take KKRTSIEVSVKGALESHFLKGPKPSAQEITNLADSLQLEKEVVRVWFCNRRQKEKR [C21G]: the abundance fitness is -0.468 ± 0.062.

As to KKRTSIEVSVKGALESHFLKYPKPSAQEITNLADSLQLEKEVVRVWFCNRRQKEKR [C21Y], the abundance fitness was -0.383 ± 0.12.

Turning to KKRTSIEVSVKGALESHFLKVPKPSAQEITNLADSLQLEKEVVRVWFCNRRQKEKR [C21V], the abundance fitness was -0.249 ± 0.069.

On to KKRTSIEVSVKGALESHFLKCPKPSAQEITNLLDSLQLEKEVVRVWFCNRRQKEKR [A33L], for which the abundance fitness was -0.889 ± 0.098.

As to KKRTSIEVSVKGALESHFLKCPKPSAQEITNAADSLQLEKEVVRVWFCNRRQKEKR [L32A], the abundance fitness is -0.92 ± 0.15.

With KKRTNIEVSVKGALESHFLKCPKPSAQEITNLADSLQLEKEVVRVWFCNRRQKEKR [S5N], the abundance fitness is 0.193 ± 0.11.

On to KKRTQIEVSVKGALESHFLKCPKPSAQEITNLADSLQLEKEVVRVWFCNRRQKEKR [S5Q], for which the abundance fitness was determined as 0.203 ± 0.12.

For the variant KKRTSIPVSVKGALESHFLKCPKPSAQEITNLADSLQLEKEVVRVWFCNRRQKEKR [E7P], the abundance fitness worked out at 0.167 ± 0.051.

Regarding KKRTSIEVSVKGALESHFLKCPKPSAQEITNLADSLQLEKEVVRVWFCNRRQKEKC [R56C], the abundance fitness is -0.435 ± 0.25.

Consider KKRTSIEVSVKGALEQHFLKCPKPSAQEITNLADSLQLEKEVVRVWFCNRRQKEKR [S16Q], for which the abundance fitness was found to be 0.012 ± 0.14.

On to KKRTSIEVSVKGALEMHFLKCPKPSAQEITNLADSLQLEKEVVRVWFCNRRQKEKR [S16M], for which the abundance fitness was -0.076 ± 0.12.

Turning to KKRTSIEVSVKGALEIHFLKCPKPSAQEITNLADSLQLEKEVVRVWFCNRRQKEKR [S16I], the abundance fitness was -0.361 ± 0.17.

Turning to KKRTSIEVSVKGALESHFLKCPKPSAQEITNLADSLQLEKEVVRVWFCNRRFKEKR [Q52F], the abundance fitness was -0.205 ± 0.14.

With KKRTSIEVSVKGALESHFLKCPKPSATEITNLADSLQLEKEVVRVWFCNRRQKEKR [Q27T], the abundance fitness is -0.151 ± 0.11.

Consider KKRTSIEVSVKGALESHFLKCPKPSAEEITNLADSLQLEKEVVRVWFCNRRQKEKR [Q27E], for which the abundance fitness is -0.036 ± 0.11.

Turning to KKRTSIEVSVKGALESHFLKCPKPSAMEITNLADSLQLEKEVVRVWFCNRRQKEKR [Q27M], the abundance fitness was -0.194 ± 0.1.

As to KKRTSIEVSVKGALESHFLKCLKPSAQEITNLADSLQLEKEVVRVWFCNRRQKEKR [P22L], the abundance fitness is -0.732 ± 0.41.

For KKRTSIEVSVKGALESHFLKCPKPSAQEITNLADSLQLEKEVVRVWFCNRCQKEKR [R51C], the abundance fitness was -0.345 ± 0.12.

In the case of KKRTSIEVSVKGALESHFLKCPKPSAQEITNLADSLQLEKEVVRVWFCNRLQKEKR [R51L], the abundance fitness is -0.005 ± 0.079.

With KKRTSIEVSVKGALESHFLKCPKPSAQEITNLADSLQLEKEVVRVWFCNREQKEKR [R51E], the abundance fitness is -0.126 ± 0.092.

Consider KKRTSIEVSVKGALESHFLKCPKPSAQEITNLADSLQLEKEVVRVWFCNRKQKEKR [R51K], for which the abundance fitness is -0.534 ± 0.18.

For the variant KKRTSIEVSVKGALESHFLKCPKPSAQEITNLADSLQLEKEVVRVWFCNRHQKEKR [R51H], the abundance fitness was -0.361 ± 0.24.

Turning to KKRTSIEVSVKGALESHFLKCPKPSAQEITNLADSLQLEKEVVRVWFCNRPQKEKR [R51P], the abundance fitness is -0.608 ± 0.16.

As for KKRTSIEVSVKGALESHFLKCPKPSAQEIWNLADSLQLEKEVVRVWFCNRRQKEKR [T30W], the abundance fitness was -0.327 ± 0.095.

Consider KKRTSIEVSVKGALESHFLKCPKPSAQEIYNLADSLQLEKEVVRVWFCNRRQKEKR [T30Y], for which the abundance fitness is -0.337 ± 0.13.

For KKRTSIEVSVKGALESHFLKCPKPSAQEIVNLADSLQLEKEVVRVWFCNRRQKEKR [T30V], the abundance fitness is -0.1 ± 0.064.
